Experimental data from article PMC10163220.

Legend:
[1] = target: ZIKV NS4A N-terminal peptide construct (residues 4–58) with N-terminal His-tag and linker (Zika virus (strain MR-766)); assay: AUC; sedimentation equilibrium; approx. 10, 20 and 40 µM in 50 mM Tris–HCl pH 7.3, 150 mM NaCl; 23,000, 28,000, 34,500 and 42,000 rpm; 280 nm; self-equilibrium models in SEDPHAT, monomer to dimer to trimer
[2] = target: ZIKV NS4A N-terminal peptide construct (residues 4–58) with N-terminal His-tag and linker (Zika virus (strain MR-766)); assay: AUC; sedimentation velocity; 50 mM Tris–HCl (pH 7.4), approx. 3–300 µM, 50,000 rpm, 20 °C, absorbance at 230 or 280 nm; c(s), c(s,ff0) and hybrid local continuous global discrete (non-interacting) analysis; no detergent or lipids

## ZIKV NS4A N-terminal peptide construct (residues 4–58) with N-terminal His-tag and linker
[1]
  percent of monomers in trimers at 50 µM: 50%
  stoichiometry N: 3
[2]
  stoichiometry N: 3
